Measurements reported in patent US20200291075A1 (TRUSTEES OF PRINCETON UNIVERSITY, published 2020).
Positions count from the first letter of the chain named. Names may count otherwise. “And” between values parts separate entries of the source, which are not always exact repeats. Equal entries are not always repeated. Where two headings read alike, the source gives them in different places.

Legend:
[1] = molecular target: iLID-CAAX; assay: cytosol-to-membrane translocation in NIH3T3 cells
[2] = molecular target: iLID-CAAX; assay: cytosol-to-membrane redistribution in NIH3T3 cells
[3] = molecular target: mCherry (purified, His-tag cleaved off); assay: OCTET BLI; His-tagged nanobody on Ni-NTA biosensor, tag-free mCherry in solution
[4] = molecular target: mCherry (purified, His-tag cleaved off); assay: BLI (Octet RED96e); His-tagged nanobody on Ni-NTA sensor, tagless mCherry in solution; no illumination
[5] = molecular target: T1, His6-YFP-SH2 (human, UniProt P00519 112-232); assay: pull-down on His6-YFP-SH2 cobalt beads, SDS-PAGE densitometry
T1 construct: domain: SH2 domain; also called 6xHis-YFP-protein fusion
T1 sequence (looked up): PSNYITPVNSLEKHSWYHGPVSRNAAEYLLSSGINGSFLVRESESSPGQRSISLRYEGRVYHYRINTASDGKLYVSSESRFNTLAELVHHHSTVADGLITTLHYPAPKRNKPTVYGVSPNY
Procedure: (§1) The His6-YFP-SH2 supernatant was then mixed with 4.5 mL of a 50% suspension of Co-charged agarose resin (Talo®), previously equilibrated in Binding buffer, and incubated at 4° C., rocking for 45 min. The suspension was sedimented by gravity and the supernatant discarded. The beads were then thoroughly washed with Binding buffer with approximately 50 times the resin or column volume. The beads (now with His6-YFP-SH2 bound) were then finally resuspended in Binding buffer to a total volume of 13.5 mL. The bead suspension was equally divided into 9 conical tubes of 15 mL (having each 1.5 mL of the bead suspension). Four of these tubes were used for experiments under blue light with LED panels (450 nm and intensity of 45 μmol/m²/s) while the other four were used for experiments in the dark (wrapped in aluminum foil). Experiments were performed in a dark room and red light was used occasionally for visualization purposes. The remaining tube was left as a control for His6-YFP-SH2 binding. Samples of 2.5 mL of bacterial clarified lysates containing either the monobody HA4 supernatant or each one of the chimeras were added to separate tubes of resin. The mixtures were then incubated for 45 minutes (at 4° C. and constant vertical rotation of 20 rpm) under blue light or dark conditions. […]

[6] = molecular target: T1, His6-YFP-SH2; assay: pull-down on Co2+ agarose beads with His6-YFP-SH2, crude chimera lysate, light or dark, SDS-PAGE
Procedure: as §1

[7] = molecular target: T2, YFP-SH2 (human, UniProt P00519 112-232); assay: BLI; lit-state against dark-state OptoMB variants
T2 construct: domain: SH2 domain; also called SH2-tagged YFP; EZ-L703
T2 sequence (looked up): T1 sequence (looked up)
Procedure: (§2) Ni-NTA sensors (ForteBio) were first equilibrated using Buffer A for 10 minutes prior the measurement. A volume of 200 μL of Buffer A or protein solutions (previously dialyzed with Buffer A when needed) was added to clear, 96-well plates. During the experimental run, the Ni-NTA sensors were first immersed in Buffer A to record the baseline. […] The sensors were then transferred back into Buffer A to remove unbound protein. […] To measure the unbinding rate constant (koff), the sensors were then moved to wells containing Buffer A to trigger dissociation of YFP-SH2. To measure binding kinetics of the light state, the lid of the Octet remained open during the measurement and a blue LED panel was held above the 96-well plate, maintaining constant blue illumination for the duration of the experiment. […] The raw binding and unbinding data were simultaneously fit to models of the binding and unbinding reactions:

[8] = molecular target: T2, YFP-SH2; assay: BLI; His-tagged binder on Ni-NTA sensor, YFP-SH2 in solution; light conformation
Procedure: as §2

[9] = molecular target: T2, YFP-SH2; assay: LCAC in batch, Talon resin; share of the resin-bound target eluted by blue light
Procedure: (§3) After elution, beads were washed with imidazole to recover any remaining protein bound to the beads in order to estimate the capacity and yields of the resin.
(§4) The Resin was rotated in 50 mL conical tubes (covered with aluminum foil) at room temperature for 20 minutes and then poured in 20 mL BioRad glass Econo-Columns and washed with Buffer A (50 column volumes). […] The mixture was then vertically rotated gently for 45 minutes in 15 ml conical tubes.

[10] = molecular target: T2, YFP-SH2; assay: BLI; binder on Ni-NTA sensor, YFP-SH2 in solution; lit conformation, 450 nm light
Procedure: as §2

[11] = molecular target: T2, YFP-SH2; assay: BLI; binder on Ni-NTA sensor, YFP-SH2 in solution; lit conformation, ambient light
Procedure: as §2

[12] = molecular target: T2, YFP-SH2; assay: LCAC in batch; His-tag bound OptoMB on Talon cobalt resin, target from crude E. coli lysate bound in the dark
Procedure: as §3, §4

[13] = molecular target: T2, YFP-SH2; assay: BLI; binder on Ni-NTA sensor, YFP-SH2 in solution; dark conformation, 450 nm light
Procedure: as §2

[14] = molecular target: T2, YFP-SH2; assay: BLI; binder on Ni-NTA sensor, YFP-SH2 in solution; dark conformation, ambient light
Procedure: as §2

[15] = molecular target: T2, YFP-SH2; assay: BLI; His-tagged binder on Ni-NTA sensor, YFP-SH2 in solution; dark conformation; average of three measurements
Procedure: as §2

[16] = molecular target: T1, His6-YFP-SH2; assay: pull-down on Co2+ agarose beads with His6-YFP-SH2, crude chimera lysate, light or dark, SDS-PAGE; remark: listed apart in the source
Procedure: as §1

[17] = molecular target: T2, YFP-SH2; assay: BLI; Kd of OptoMBV416L (light) against Kd of OptoMBC450V (dark)
Procedure: as §2

[18] = molecular target: T2, YFP-SH2; assay: BLI; His-tagged binder on Ni-NTA sensor, YFP-SH2 in solution; light conformation; average of three measurements
Procedure: as §2

[19] = molecular target: T3, SH2-PDC1 (human; Saccharomyces cerevisiae); assay: LCAC in batch, Talon resin; share of the resin-bound target eluted by blue light
T3 construct: No His tag; also called SH2-tagged Pdc1p; EZ-L886
T3 chain: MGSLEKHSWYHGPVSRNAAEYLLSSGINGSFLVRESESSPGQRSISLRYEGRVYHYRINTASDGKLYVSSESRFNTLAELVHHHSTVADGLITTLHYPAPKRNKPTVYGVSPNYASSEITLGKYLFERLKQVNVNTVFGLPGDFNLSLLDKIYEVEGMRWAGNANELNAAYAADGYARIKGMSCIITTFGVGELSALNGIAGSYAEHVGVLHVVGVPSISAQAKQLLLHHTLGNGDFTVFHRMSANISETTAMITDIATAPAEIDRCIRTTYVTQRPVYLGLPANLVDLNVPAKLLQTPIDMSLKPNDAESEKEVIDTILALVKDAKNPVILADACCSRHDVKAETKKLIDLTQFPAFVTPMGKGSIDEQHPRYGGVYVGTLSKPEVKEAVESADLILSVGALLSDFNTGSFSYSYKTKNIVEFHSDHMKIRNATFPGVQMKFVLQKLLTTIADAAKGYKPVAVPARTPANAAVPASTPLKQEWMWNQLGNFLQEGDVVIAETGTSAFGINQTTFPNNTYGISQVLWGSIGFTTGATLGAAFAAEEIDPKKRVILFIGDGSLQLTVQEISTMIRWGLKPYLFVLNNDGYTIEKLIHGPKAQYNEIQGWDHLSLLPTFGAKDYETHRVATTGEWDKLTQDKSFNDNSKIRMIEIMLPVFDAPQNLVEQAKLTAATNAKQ
Procedure: as §3, §4

[20] = molecular target: T2, YFP-SH2; assay: BLI; SUMO-tagged binder on Ni-NTA sensor, YFP-SH2 in solution; lit conformation, ambient light
Procedure: as §2

[21] = molecular target: T3, SH2-PDC1; assay: LCAC in batch; His-tag bound OptoMB on Talon cobalt resin, target from crude E. coli lysate bound in the dark
Procedure: as §3, §4

[22] = molecular target: T2, YFP-SH2; assay: BLI; binder on Ni-NTA sensor, YFP-SH2 in solution; ambient light
[23] = molecular target: T2, YFP-SH2; assay: BLI (Octet RED96e); His-tagged binder on Ni-NTA sensor, YFP-SH2 in solution

BFP-SSPB-SOScat
change in cytosolic intensity between light and dark [1]: 60%
change in cytosolic intensity between light conditions [2]: 60%

LaM8 anti-mCherry nanobody (His-tagged, purified) (VHH)
Kd [3]: 0.322 µM
koff [3]: 0.02 s⁻¹
kon [3]: 75200 M⁻¹ s⁻¹
Kd [4]: 0.23 µM
koff [4]: 0.018 s⁻¹
kon [4]: 76000 M⁻¹ s⁻¹

B1: HA4-AsLOV2 chimera, SS58 insertion, untagged (OptoMB) (designed binder)
chain: GSSVSSVPTKLEVVAATPTSLLISWDAPMSSSSVYYYRITYGETGGNSPVQEFTVPYSGLERIEKNFVITDPRLPDNPIIFASDSFLQLTEYSREEILGRNCRFLQGPETDRATVRKIRDAIDNQTEVTVQLINYTKSGKKFWNLFHLQPMRDQKGDVQYFIGVQLDGTEHVRDAAEREGVMLIKKTAENIDEAAGSSTATISGLSPGVDYTITVYAWGEDSAGYMFMYSPISINYRTC
notes: Used as crude E. coli extract in the pull-down screen; also called alphaSH2 OptoMonobody; EZ-L706
band intensity, dark against light [5]: ~2.1 fold

B2: HA4-AsLOV2 chimera, SG65 insertion (designed binder)
chain: GSSVSSVPTKLEVVAATPTSLLISWDAPMSSSSVYYYRITYGETGGNSPVQEFTVPYSSSTATISGLERIEKNFVITDPRLPDNPIIFASDSFLQLTEYSREEILGRNCRFLQGPETDRATVRKIRDAIDNQTEVTVQLINYTKSGKKFWNLFHLQPMRDQKGDVQYFIGVQLDGTEHVRDAAEREGVMLIKKTAENIDEAAGGLSPGVDYTITVYAWGEDSAGYMFMYSPISINYRTC
binding result [6]: no binding

B3: OptoMB (His6-tagged, wild-type AsLOV2) (designed binder)
chain: HHHHHHSSGENLYFQGHASGSSVSSVPTKLEVVAATPTSLLISWDAPMSSSSVYYYRITYGETGGNSPVQEFTVPYSGLERIEKNFVITDPRLPDNPIIFASDSFLQLTEYSREEILGRNCRFLQGPETDRATVRKIRDAIDNQTEVTVQLINYTKSGKKFWNLFHLQPMRDQKGDVQYFIGVQLDGTEHVRDAAEREGVMLIKKTAENIDEAAGSSTATISGLSPGVDYTITVYAWGEDSAGYMFMYSPISINYRTC
notes: also called OptoMB 1; OptoMB 2
fold change of kon and koff, light against dark [7]: ~20 fold
koff [8]: 0.21 s⁻¹
kon [8]: < 1000 M⁻¹ s⁻¹
Yield (% of recovery from the resin) [9]: 17.8%
Kd [10]: > 100 µM
koff [10]: 0.21 s⁻¹
kon [10]: < 1000 M⁻¹ s⁻¹
Kd [11]: > 100 µM
koff [11]: 0.34 s⁻¹
kon [11]: < 1000 M⁻¹ s⁻¹
Resin Capacity [12]: 5.85 mg/mL

B4: OptoMBC450V (designed binder)
chain: B3 chain with C121V
notes: also called OptoMBC450V 1; OptoMBC450V 2
Kd [13]: 0.27 µM
koff [13]: 0.013 s⁻¹
kon [13]: 48000 M⁻¹ s⁻¹
koff [14]: 0.006 s⁻¹ and 0.013 s⁻¹
kon [14]: 110000 M⁻¹ s⁻¹ and 56000 M⁻¹ s⁻¹
Kd [15]: 0.19 µM
koff [15]: 0.01 s⁻¹
kon [15]: 71000 M⁻¹ s⁻¹

B5: HA4-AsLOV2 chimera, NS47 insertion (designed binder)
chain: GSSVSSVPTKLEVVAATPTSLLISWDAPMSSSSVYYYRITYGETGGNGLERIEKNFVITDPRLPDNPIIFASDSFLQLTEYSREEILGRNCRFLQGPETDRATVRKIRDAIDNQTEVTVQLINYTKSGKKFWNLFHLQPMRDQKGDVQYFIGVQLDGTEHVRDAAEREGVMLIKKTAENIDEAAGSPVQEFTVPYSSSTATISGLSPGVDYTITVYAWGEDSAGYMFMYSPISINYRTC
binding result [16]: no binding

B6: OptoMBV416L (designed binder)
chain: HHHHHHGSGSGSDQEAKPSTEDLGDKKEGEYIKLKVIGQDSSEIHFKVKMTTHLKKLKESYCQRQGVPMNSLRFLFEGQRIADNHTPKELGMEEEDVIEVYQEQTGGHMASKGSSVSSVPTKLEVVAATPTSLLISWDAPMSSSSVYYYRITYGETGGNSPVQEFTVPYSGLERIEKNFLITDPRLPDNPIIFASDSFLQLTEYSREEILGRNCRFLQGPETDRATVRKIRDAIDNQTEVTVQLINYTKSGKKFWNLFHLQPMRDQKGDVQYFIGVQLDGTEHVRDAAEREGVMLIKKTAENIDEAAGSSTATISGLSPGVDYTITVYAWGEDSAGYMFMYSPISINYRTC
notes: T0006 lists the V416L plasmid with His6-SUMO; also called OptoMBV416L 1; OptoMBV416L 2
fold change in binding affinity, light against dark [17]: ~330 fold
Kd [10]: 60 µM and 42 µM
koff [10]: 0.2 s⁻¹ and 0.24 s⁻¹
kon [10]: 3300 M⁻¹ s⁻¹ and 5800 M⁻¹ s⁻¹
Kd [11]: 87 µM
koff [11]: 0.25 s⁻¹
kon [11]: 2900 M⁻¹ s⁻¹
Kd [18]: 63 µM
koff [18]: 0.23 s⁻¹
kon [18]: 4000 M⁻¹ s⁻¹

B7: OptoMBV416I_G528A_N538E (His6-SUMO tagged) (designed binder)
chain: B6 chain with L180I, G292A, N302E
notes: also called OptoMBTriple
Yield (% of recovery from the resin) [9]: 29.8%
Yield (% of recovery from the resin) [19]: 39%
Kd [20]: > 100 µM
koff [20]: 0.1 s⁻¹ and 0.13 s⁻¹
kon [20]: < 1000 M⁻¹ s⁻¹
Resin Capacity [12]: 4.5 mg/mL
Resin Capacity [21]: 5.24 mg/mL

B8: Monobody HA4 (His6-tagged, purified) (designed binder)
chain: HHHHHHSSGENLYFQGHASGSSVSSVPTKLEVVAATPTSLLISWDAPMSSSSVYYYRITYGETGGNSPVQEFTVPYSSSTATISGLSPGVDYTITVYAWGEDSAGYMFMYSPISINYRTC
Kd [22]: 0.28 µM
koff [22]: 0.0145 s⁻¹
kon [22]: 51000 M⁻¹ s⁻¹
Kd [23]: 0.23 µM
koff [23]: 0.0145 s⁻¹
kon [23]: 63100 M⁻¹ s⁻¹

B9: HA4-AsLOV2 chimera, SA84 insertion (designed binder)
chain: GSSVSSVPTKLEVVAATPTSLLISWDAPMSSSSVYYYRITYGETGGNSPVQEFTVPYSSSTATISGLSPGVDYTITVYAWGEDSGLERIEKNFVITDPRLPDNPIIFASDSFLQLTEYSREEILGRNCRFLQGPETDRATVRKIRDAIDNQTEVTVQLINYTKSGKKFWNLFHLQPMRDQKGDVQYFIGVQLDGTEHVRDAAEREGVMLIKKTAENIDEAAGAGYMFMYSPISINYRTC
binding result [16]: no binding
